From patent US20100211325A1 come the findings set out here.

The target in test [1] is Laminin 511/521 (LM511/521) (UniProt O15230). As to the kind of experiment: ELISA, 0.05 nM Lu gpFc captured by anti-human Fc, 5 nM LM511/521, anti-laminin detection.
For test [2] the target is unchanged. Kind of test: SPR (Biacore X), Lu gpFc captured on protein A chip (40 RU), 100 µl injection of 10 nM LM511/521, total change in RU. For orientation: In SPR one partner is held on a chip, and binding of the other changes the refractive index at the surface.
For test [3] the target is unchanged. As to the kind of experiment: ELISA in buffers of pH 4.0 to 11.0 and 1M NaCl, negative control Fc fusion protein captured, LM511/521 added. A general note: In an ELISA, binding on a coated surface is turned into a signal by an enzyme label.

Sequence of Muc18 Fc fusion protein (negative control) (P43121 24-559): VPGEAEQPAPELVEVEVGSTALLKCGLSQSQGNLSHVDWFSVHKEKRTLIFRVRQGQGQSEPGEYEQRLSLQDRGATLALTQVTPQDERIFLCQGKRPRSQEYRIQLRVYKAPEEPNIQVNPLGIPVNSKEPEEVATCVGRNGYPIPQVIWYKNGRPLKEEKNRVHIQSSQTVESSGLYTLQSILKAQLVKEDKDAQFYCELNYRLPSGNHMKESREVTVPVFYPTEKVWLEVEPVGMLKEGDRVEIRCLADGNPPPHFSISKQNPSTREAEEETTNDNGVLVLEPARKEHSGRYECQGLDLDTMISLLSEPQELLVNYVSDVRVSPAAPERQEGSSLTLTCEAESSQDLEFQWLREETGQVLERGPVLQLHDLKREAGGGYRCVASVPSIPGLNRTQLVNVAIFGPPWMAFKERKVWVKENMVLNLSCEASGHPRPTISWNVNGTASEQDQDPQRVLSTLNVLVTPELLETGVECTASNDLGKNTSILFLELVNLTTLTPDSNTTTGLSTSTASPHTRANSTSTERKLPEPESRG

Take “Lu gpFc D310A (from UniProt P50895 32-547) (Fc fusion)”: the ELISA % of native Lu gpFc in test [1] turned out to be 26.4%. Also, the Biacore Δ RUs in test [2] is 38.5 RU.
On the same counts, the results for “Lu gpFc E281A (from UniProt P50895 32-547) (Fc fusion)” are 97.3% and 100 RU.
On the same counts, the results for “Lu gpFc E280A (from UniProt P50895 32-547) (Fc fusion)” are 73% and 99.1 RU.
On to “Lu gpFc E309A (from UniProt P50895 32-547) (Fc fusion)”, for which the ELISA % of native Lu gpFc in test [1] came out at 40.4%. Besides, the Biacore Δ RUs in test [2] worked out at 44.9 RU.
On the same counts, the results for “Lu gpFc E269A (from UniProt P50895 32-547) (Fc fusion)” are 63.2% and 73.8 RU.
On the same counts, the results for “Lu gpFc D315A (from UniProt P50895 32-547) (Fc fusion)” are 93.2% and 116 RU.
Turning to “Lu gpFc E234A (from UniProt P50895 32-547) (Fc fusion)”, the ELISA % of native Lu gpFc in test [1] stood at 90.7%. The Biacore Δ RUs in test [2] was determined as 85 RU.
Consider “Muc18 Fc fusion protein (negative control) (from UniProt P43121 24-559)”, for which the OD450 (background binding) in test [3] was in the range of 0.18 to 0.64 OD450.
“Lu gpFc D198A/D199A (from UniProt P50895 32-547) (Fc fusion)”: in test [1], the ELISA % of native Lu gpFc was 49%. This substance also yielded a Biacore Δ RUs in test [2] of 59.7 RU.
On the same counts, the results for “Lu gpFc D312A (from UniProt P50895 32-547) (Fc fusion)” are 20.7% and 4.4 RU.
Regarding “Lu gpFc D316A (from UniProt P50895 32-547) (Fc fusion)”, the ELISA % of native Lu gpFc in test [1] came to 75%. The Biacore Δ RUs in test [2] worked out at 79.8 RU.
